First the molecules themselves.
B1: human TFIIH p62 PH domain (PH-D) (residues 1–108) (domain or fragment)
chain: MATSSEEVLLIVKKVRQKKQDGALYLMAERIAWAPEGKDRFTISHMYADIKCQKISPEGKAKIQLQLVLHAGDTTNFHFSNESTAVKERDAVKDLLQQLLPKFKRKAN
notes: p62 subunit of the general transcription/repair factor TFIIH, human, N-terminal pleckstrin homology (PH) domain, residues 1-108; Unlabeled, 15N-labeled or 13C/15N-labeled according to the experiment; Expressed from pET15b; a few vector residues may remain after thrombin cleavage (surmise); source: E. coli BL21 (DE3) Gold, purified (Ni-NTA, thrombin digestion, Superdex75)
B2: human RPB6 (residues 1–24), NTT peptide (peptide, UniProt P61218 1-24, looked up)
peptide: MSDNEDNFDGDDFDDVEEDEGLDD
notes: RPB6, human, N-terminal tail (NTT), residues 1-24; also called NTT peptide derived from human RPB6
B3: human RPB6 (residues 1–24) S2A (peptide, UniProt P61218 1-24, looked up)
peptide: MADNEDNFDGDDFDDVEEDEGLDD
notes: RPB6, human, N-terminal tail, residues 1-24, with Ser2 substituted to alanine; also called Ser2 alanine substitution
B4: human RPB6 (residues 1–24) F8A (peptide, UniProt P61218 1-24, looked up)
peptide: MSDNEDNADGDDFDDVEEDEGLDD
notes: RPB6, human, N-terminal tail, residues 1-24, with F8A
B5: human RPB6 (residues 1–24) F13A (peptide, UniProt P61218 1-24, looked up)
peptide: MSDNEDNFDGDDADDVEEDEGLDD
notes: RPB6, human, N-terminal tail, residues 1-24, with F13A
B6: human RPB6 (residues 1–24) F13A-V16A (peptide, UniProt P61218 1-24, looked up)
peptide: MSDNEDNFDGDDADDAEEDEGLDD
notes: RPB6, human, N-terminal tail, residues 1-24, with F13A and V16A; also called F13A-V16A double mutation
B7: human RPB6 (residues 1–24) V16A (peptide, UniProt P61218 1-24, looked up)
peptide: MSDNEDNFDGDDFDDAEEDEGLDD
notes: RPB6, human, N-terminal tail, residues 1-24, with V16A

One test has as its target human RPB6 (residues 1–127), full-length (human, UniProt P61218 1-127). The test is described as follows: NMR structure; complex at 0.38 mM, 13C/15N-labeled RPB6 with unlabeled p62 PH-D at 1.0:2.0 (and 13C/15N-labeled p62 PH-D with unlabeled RPB6); 20 mM potassium phosphate (pH 6.8), 25 mM NaCl, 5 mM deuterated DTT, 25°C; intermolecular NOEs. The note with it: both partners purified.
With B1, the binding result is reported as “binds”.

The next test addresses B1. Description: ITC; 100∼300 μM RPB6/Rpb6 peptide in the syringe titrated into 10–30 μM p62 PH-D in the cell; 20 mM potassium phosphate (pH 6.8) with or without 25 mM NaCl, 20°C; VP-ITC. Particulars: both partners purified.
In the case of B2, the binding result was “binds”. For the molecule B3, the binding result is “binds”. Same read-out and setting: the result for B4 reads “binds”; that for B5, “binds”.

For the molecule B6, the binding result is recorded as “binds”. On the same count and under the same terms, the value for B7 was “binds”.

The record behind these values is paper PMC8754651, “Three human RNA polymerases interact with TFIIH via a common RPB6 subunit” (Nucleic Acids Research, 2021).
